In patent publication US20140087995A1 (published 2014):
Numbered stars: 1 amine (or outer) side, 2 acyl side, 3 side chain; on linkers, the order of the positions; unused ones are H or OH. Bridge positions count the residues as written; N and C are the ends. Side chains are listed from the residue outwards. Ends that are not written are not given here. * marks the point of attachment. C20 diacid = O=C(O)CCCCCCCCCCCCCCCCCCC(=O)*; γGlu = O=C(O)[C@H](CCC(=O)[*:2])N[*:1]

T1: rat amylin receptor (rat calcitonin receptor + rat RAMP 3) (rat, UniProt P32214 25-516; Q9JJ73 23-147)
T1 construct: whole, on cells; Used as membranes prepared from BHK tk'ts 13 cells transiently transfected with rat calcitonin receptor and rat RAMP 3 (Assay VI); also called rAmylin-R; rat amylin 3(a) receptor
T1 sequence (looked up) 1: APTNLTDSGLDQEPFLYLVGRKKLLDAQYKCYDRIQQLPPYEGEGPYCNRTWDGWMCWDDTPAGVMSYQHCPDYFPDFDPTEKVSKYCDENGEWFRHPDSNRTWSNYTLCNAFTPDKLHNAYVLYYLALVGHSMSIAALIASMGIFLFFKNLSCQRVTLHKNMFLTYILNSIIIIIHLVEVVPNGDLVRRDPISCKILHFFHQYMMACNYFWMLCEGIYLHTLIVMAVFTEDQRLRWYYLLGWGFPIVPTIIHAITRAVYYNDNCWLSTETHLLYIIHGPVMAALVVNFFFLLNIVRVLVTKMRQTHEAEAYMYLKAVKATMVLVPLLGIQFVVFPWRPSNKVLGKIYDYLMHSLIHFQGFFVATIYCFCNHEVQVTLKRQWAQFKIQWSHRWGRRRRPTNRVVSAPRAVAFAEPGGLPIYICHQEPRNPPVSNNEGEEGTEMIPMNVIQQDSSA
T1 sequence (looked up) 2: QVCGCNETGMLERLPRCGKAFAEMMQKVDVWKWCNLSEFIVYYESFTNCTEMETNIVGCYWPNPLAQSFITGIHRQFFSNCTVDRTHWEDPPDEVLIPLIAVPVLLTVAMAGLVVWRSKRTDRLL

T2: human calcitonin receptor (human, UniProt P30988 25-474)
T2 construct: whole, on cells; Used as membranes prepared from a BHK tk'ts 13 cell line stably transfected with the human calcitonin receptor (Assay VII); also called hCTR; hCT
T2 sequence (looked up): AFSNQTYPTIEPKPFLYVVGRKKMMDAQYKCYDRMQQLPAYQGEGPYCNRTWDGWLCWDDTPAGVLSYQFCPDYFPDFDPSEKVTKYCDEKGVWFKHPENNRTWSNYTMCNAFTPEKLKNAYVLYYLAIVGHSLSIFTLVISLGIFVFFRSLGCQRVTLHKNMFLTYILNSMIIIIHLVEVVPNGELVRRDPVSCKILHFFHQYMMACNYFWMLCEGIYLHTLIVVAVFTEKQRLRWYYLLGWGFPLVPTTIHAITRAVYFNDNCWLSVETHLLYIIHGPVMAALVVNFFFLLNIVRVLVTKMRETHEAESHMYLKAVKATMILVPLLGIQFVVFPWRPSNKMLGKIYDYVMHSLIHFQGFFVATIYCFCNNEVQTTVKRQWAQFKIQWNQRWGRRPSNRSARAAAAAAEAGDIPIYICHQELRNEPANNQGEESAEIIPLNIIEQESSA

T3: rat calcitonin receptor (rat, UniProt P32214 25-516)
T3 construct: whole, on cells; Used as membranes prepared from BHK tk'ts 13 cells transiently transfected with the rat calcitonin receptor (Assay VIII); also called rCTR; rat calcitonin (a) receptor
T3 sequence (looked up): T1 sequence (looked up) 1

B1: N^ε1-[(4S)-4-carboxy-4-(19-carboxynonadecanoylamino)butanoyl]-[His14,Arg17,Pro21,Pro27,Pro31]-h-amylin (peptide)
peptide: K([γGlu-C20 diacid])CNTATCATQRLAHFLRHSSPNFGAIPSSTPVGSNTY-NH2
modifications: disulfide 2-7; N-terminus assumed
SMILES: CC[C@H](C)[C@H](NC(=O)[C@H](C)NC(=O)CNC(=O)[C@H](Cc1ccccc1)NC(=O)[C@H](CC(N)=O)NC(=O)[C@@H]1CCCN1C(=O)[C@H](CO)NC(=O)[C@H](CO)NC(=O)[C@H](Cc1c[nH]cn1)NC(=O)[C@H](CCCNC(=N)N)NC(=O)[C@H](CC(C)C)NC(=O)[C@H](Cc1ccccc1)NC(=O)[C@H](Cc1c[nH]cn1)NC(=O)[C@H](C)NC(=O)[C@H](CC(C)C)NC(=O)[C@H](CCCNC(=N)N)NC(=O)[C@H](CCC(N)=O)NC(=O)[C@@H](NC(=O)[C@H](C)NC(=O)[C@@H]1CSSC[C@H](NC(=O)[C@@H](N)CCCCNC(=O)CC[C@H](NC(=O)CCCCCCCCCCCCCCCCCCC(=O)O)C(=O)O)C(=O)N[C@@H](CC(N)=O)C(=O)N[C@@H]([C@@H](C)O)C(=O)N[C@@H](C)C(=O)N[C@@H]([C@@H](C)O)C(=O)N1)[C@@H](C)O)C(=O)N1CCC[C@H]1C(=O)N[C@@H](CO)C(=O)N[C@@H](CO)C(=O)N[C@H](C(=O)N1CCC[C@H]1C(=O)N[C@H](C(=O)NCC(=O)N[C@@H](CO)C(=O)N[C@@H](CC(N)=O)C(=O)N[C@H](C(=O)N[C@@H](Cc1ccc(O)cc1)C(N)=O)[C@@H](C)O)C(C)C)[C@@H](C)O
notes: Analogue of human amylin; also called compound 62
B2: N^ε1-[(4S)-4-carboxy-4-(19-carboxynonadecanoylamino)butanoyl]-[His14,Arg17,Pro21,Pro27]-h-amylin (peptide)
peptide: K([γGlu-C20 diacid])CNTATCATQRLAHFLRHSSPNFGAIPSSTNVGSNTY-NH2
modifications: disulfide 2-7; N-terminus assumed
SMILES: CC[C@H](C)[C@H](NC(=O)[C@H](C)NC(=O)CNC(=O)[C@H](Cc1ccccc1)NC(=O)[C@H](CC(N)=O)NC(=O)[C@@H]1CCCN1C(=O)[C@H](CO)NC(=O)[C@H](CO)NC(=O)[C@H](Cc1c[nH]cn1)NC(=O)[C@H](CCCNC(=N)N)NC(=O)[C@H](CC(C)C)NC(=O)[C@H](Cc1ccccc1)NC(=O)[C@H](Cc1c[nH]cn1)NC(=O)[C@H](C)NC(=O)[C@H](CC(C)C)NC(=O)[C@H](CCCNC(=N)N)NC(=O)[C@H](CCC(N)=O)NC(=O)[C@@H](NC(=O)[C@H](C)NC(=O)[C@@H]1CSSC[C@H](NC(=O)[C@@H](N)CCCCNC(=O)CC[C@H](NC(=O)CCCCCCCCCCCCCCCCCCC(=O)O)C(=O)O)C(=O)N[C@@H](CC(N)=O)C(=O)N[C@@H]([C@@H](C)O)C(=O)N[C@@H](C)C(=O)N[C@@H]([C@@H](C)O)C(=O)N1)[C@@H](C)O)C(=O)N1CCC[C@H]1C(=O)N[C@@H](CO)C(=O)N[C@@H](CO)C(=O)N[C@H](C(=O)N[C@@H](CC(N)=O)C(=O)N[C@H](C(=O)NCC(=O)N[C@@H](CO)C(=O)N[C@@H](CC(N)=O)C(=O)N[C@H](C(=O)N[C@@H](Cc1ccc(O)cc1)C(N)=O)[C@@H](C)O)C(C)C)[C@@H](C)O
notes: Analogue of human amylin; also called compound 70
B3: N^ε1N^ε1-[(4S)-4-carboxy-4-(19-carboxynonadecanoylamino)butanoyl]-[His14,Arg17,Pro21,Pro27,Pro34]-h-amylin (peptide)
peptide: K([γGlu-C20 diacid])CNTATCATQRLAHFLRHSSPNFGAIPSSTNVGPNTY-NH2
modifications: disulfide 2-7; N-terminus assumed
SMILES: CC[C@H](C)[C@H](NC(=O)[C@H](C)NC(=O)CNC(=O)[C@H](Cc1ccccc1)NC(=O)[C@H](CC(N)=O)NC(=O)[C@@H]1CCCN1C(=O)[C@H](CO)NC(=O)[C@H](CO)NC(=O)[C@H](Cc1c[nH]cn1)NC(=O)[C@H](CCCNC(=N)N)NC(=O)[C@H](CC(C)C)NC(=O)[C@H](Cc1ccccc1)NC(=O)[C@H](Cc1c[nH]cn1)NC(=O)[C@H](C)NC(=O)[C@H](CC(C)C)NC(=O)[C@H](CCCNC(=N)N)NC(=O)[C@H](CCC(N)=O)NC(=O)[C@@H](NC(=O)[C@H](C)NC(=O)[C@@H]1CSSC[C@H](NC(=O)[C@@H](N)CCCCNC(=O)CC[C@H](NC(=O)CCCCCCCCCCCCCCCCCCC(=O)O)C(=O)O)C(=O)N[C@@H](CC(N)=O)C(=O)N[C@@H]([C@@H](C)O)C(=O)N[C@@H](C)C(=O)N[C@@H]([C@@H](C)O)C(=O)N1)[C@@H](C)O)C(=O)N1CCC[C@H]1C(=O)N[C@@H](CO)C(=O)N[C@@H](CO)C(=O)N[C@H](C(=O)N[C@@H](CC(N)=O)C(=O)N[C@H](C(=O)NCC(=O)N1CCC[C@H]1C(=O)N[C@@H](CC(N)=O)C(=O)N[C@H](C(=O)N[C@@H](Cc1ccc(O)cc1)C(N)=O)[C@@H](C)O)C(C)C)[C@@H](C)O
notes: Analogue of human amylin; also called compound 67
B4: N^ε21-[(4S)-4-carboxy-4-[[(4S)-4-carboxy-4-(19-carboxynonadecanoylamino)butanoyl]amino]butanoyl]-[Asp14,Arg17,Lys21,Pro27,Asp35]-h-amylin (peptide)
peptide: KCNTATCATQRLADFLRHSSK([γGlu-γGlu-C20 diacid])NFGAIPSSTNVGSDTY-NH2
modifications: disulfide 2-7; N-terminus assumed
SMILES: CC[C@H](C)[C@H](NC(=O)[C@H](C)NC(=O)CNC(=O)[C@H](Cc1ccccc1)NC(=O)[C@H](CC(N)=O)NC(=O)[C@H](CCCCNC(=O)CC[C@H](NC(=O)CC[C@H](NC(=O)CCCCCCCCCCCCCCCCCCC(=O)O)C(=O)O)C(=O)O)NC(=O)[C@H](CO)NC(=O)[C@H](CO)NC(=O)[C@H](Cc1c[nH]cn1)NC(=O)[C@H](CCCNC(=N)N)NC(=O)[C@H](CC(C)C)NC(=O)[C@H](Cc1ccccc1)NC(=O)[C@H](CC(=O)O)NC(=O)[C@H](C)NC(=O)[C@H](CC(C)C)NC(=O)[C@H](CCCNC(=N)N)NC(=O)[C@H](CCC(N)=O)NC(=O)[C@@H](NC(=O)[C@H](C)NC(=O)[C@@H]1CSSC[C@H](NC(=O)[C@@H](N)CCCCN)C(=O)N[C@@H](CC(N)=O)C(=O)N[C@@H]([C@@H](C)O)C(=O)N[C@@H](C)C(=O)N[C@@H]([C@@H](C)O)C(=O)N1)[C@@H](C)O)C(=O)N1CCC[C@H]1C(=O)N[C@@H](CO)C(=O)N[C@@H](CO)C(=O)N[C@H](C(=O)N[C@@H](CC(N)=O)C(=O)N[C@H](C(=O)NCC(=O)N[C@@H](CO)C(=O)N[C@@H](CC(=O)O)C(=O)N[C@H](C(=O)N[C@@H](Cc1ccc(O)cc1)C(N)=O)[C@@H](C)O)C(C)C)[C@@H](C)O
notes: Analogue of human amylin; also called compound 59

The binders below were run against T1, rat amylin receptor (rat calcitonin …) (assay: SPA competition with 125I-rat amylin, membranes of BHK cells with rat CTR + rat RAMP3 (Assay VI)).

Question: With B1 as the binder, how does the IC50 read?
Answer: 0.42 nM

Question: For B2, which IC50 is on record?
Answer: 0.355 nM

Question: How did the IC50 turn out when B3 was run?
Answer: 0.172 nM

Question: For B4, which IC50 is on record?
Answer: 0.659 nM

These binders were tested against T2, human calcitonin receptor (assay: IC50 on human CTR divided by IC50 on human amylin receptor (Assays VII/V)).
Outline: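 Scintillation proximity competition binding on cell membranes at 35 ng/μL with SPA beads, in 50 mM Hepes pH 7.4, 1 mM CaCl2, 5 mM MgCl₂, 0.1% OA, 0.02% Tween20. Incubated 120 min at 25° C with shaking. IC₅₀ from one-site competition fit.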

Question: How did the “Ratio hCT/hAmylin binding” value turn out when B1 was run?
Answer: 63

Question: Which “Ratio hCT/hAmylin binding” value does the source give for B2 here?
Answer: 60.8

Question: With B3 as the binder, how does the “Ratio hCT/hAmylin binding” value read?
Answer: 51.6

Question: How did the “Ratio hCT/hAmylin binding” value turn out when B4 was run?
Answer: 4.3

Each binder was assayed against T3, rat calcitonin receptor (assay: SPA competition with 125I-calcitonin, membranes of BHK cells with rat CTR (Assay VIII)).

Question: B1 was tested. Which IC50 did it give?
Answer: 18 nM

Question: With B2 as the binder, how does the IC50 read?
Answer: 34.2 nM

Question: B3 was tested. Which IC50 did it give?
Answer: 14.7 nM

Question: For B4, which IC50 is on record?
Answer: 18.8 nM

What follows are binders tested against T3, rat calcitonin receptor (assay: IC50 on rat CTR divided by IC50 on rat amylin receptor (Assays VIII/VI)).

Question: How did the “Ratio rCT/rAmylin binding” value turn out when B1 was run?
Answer: 42.8

Question: For B2, which “Ratio rCT/rAmylin binding” value is on record?
Answer: 96.5

Question: With B3 as the binder, how does the “Ratio rCT/rAmylin binding” value read?
Answer: 85.4

Question: For B4, which “Ratio rCT/rAmylin binding” value is on record?
Answer: 28.5
